The values below come from paper PMC10716049.

Test [1] deals with MED1-IDR. Nature of the test: confocal fluorescence microscopy, AR AD partitioning into preassembled droplets. As to conditions: 15 µM MED1-IDR, 20 mM NaCl, 10% ficoll, 1 µM AR AD; parent: est. 97; read off a plot.
Test [2] concerns the target RNAPII-CTD. The description is as above. As to conditions: 5 µM RNAPII-CTD, 50 mM NaCl, 10% ficoll, 1 µM AR AD; parent: est. 70; read off a plot.

With AR AD WT* 22YtoS, the values for the response in test [1] and in test [2] were 80 arb.u and 25 arb.u, respectively.
